Laboratory results taken from patent US20230087600A1.

Columns and labels:
[1] = biological target: human IL-10 receptor (IL-10R) on T cells and B cells of human whole blood (human) (UniProt Q13651); experiment: cell-based or functional assay
[2] = biological target: T1, mouse IL-10 receptor (IL-10R) on T cells and B cells of C57BL/6 mouse splenocytes (mouse) (UniProt Q61727); experiment: cell-based or functional assay
T1 sequence (looked up) 1: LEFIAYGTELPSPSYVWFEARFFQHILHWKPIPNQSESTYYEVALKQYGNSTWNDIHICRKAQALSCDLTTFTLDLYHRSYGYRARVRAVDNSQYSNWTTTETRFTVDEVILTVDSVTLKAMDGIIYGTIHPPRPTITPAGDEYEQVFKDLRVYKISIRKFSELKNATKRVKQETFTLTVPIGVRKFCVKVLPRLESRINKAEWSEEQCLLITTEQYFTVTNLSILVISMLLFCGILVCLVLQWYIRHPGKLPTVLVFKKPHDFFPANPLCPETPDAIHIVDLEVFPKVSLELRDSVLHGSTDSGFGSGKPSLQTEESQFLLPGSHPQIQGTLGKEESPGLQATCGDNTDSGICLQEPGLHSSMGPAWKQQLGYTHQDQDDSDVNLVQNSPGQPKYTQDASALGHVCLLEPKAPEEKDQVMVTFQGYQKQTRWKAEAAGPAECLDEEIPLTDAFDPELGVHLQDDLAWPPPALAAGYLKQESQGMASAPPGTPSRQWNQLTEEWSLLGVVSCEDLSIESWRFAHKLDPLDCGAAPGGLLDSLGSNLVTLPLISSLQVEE
T1 sequence (looked up) 2: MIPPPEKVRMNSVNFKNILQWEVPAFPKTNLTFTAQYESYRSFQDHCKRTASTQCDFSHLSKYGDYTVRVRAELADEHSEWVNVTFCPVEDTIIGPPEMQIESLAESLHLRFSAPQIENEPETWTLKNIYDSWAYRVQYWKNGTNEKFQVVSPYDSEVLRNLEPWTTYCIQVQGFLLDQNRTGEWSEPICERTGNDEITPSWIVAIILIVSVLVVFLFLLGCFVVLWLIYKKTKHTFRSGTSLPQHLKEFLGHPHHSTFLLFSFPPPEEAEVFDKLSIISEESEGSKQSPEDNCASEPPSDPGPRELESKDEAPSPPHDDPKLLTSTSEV

Chain of human IL-10 receptor (IL-10R) on T cells and B cells of human whole blood (human) (Q13651 22-578, chain 1 of 2): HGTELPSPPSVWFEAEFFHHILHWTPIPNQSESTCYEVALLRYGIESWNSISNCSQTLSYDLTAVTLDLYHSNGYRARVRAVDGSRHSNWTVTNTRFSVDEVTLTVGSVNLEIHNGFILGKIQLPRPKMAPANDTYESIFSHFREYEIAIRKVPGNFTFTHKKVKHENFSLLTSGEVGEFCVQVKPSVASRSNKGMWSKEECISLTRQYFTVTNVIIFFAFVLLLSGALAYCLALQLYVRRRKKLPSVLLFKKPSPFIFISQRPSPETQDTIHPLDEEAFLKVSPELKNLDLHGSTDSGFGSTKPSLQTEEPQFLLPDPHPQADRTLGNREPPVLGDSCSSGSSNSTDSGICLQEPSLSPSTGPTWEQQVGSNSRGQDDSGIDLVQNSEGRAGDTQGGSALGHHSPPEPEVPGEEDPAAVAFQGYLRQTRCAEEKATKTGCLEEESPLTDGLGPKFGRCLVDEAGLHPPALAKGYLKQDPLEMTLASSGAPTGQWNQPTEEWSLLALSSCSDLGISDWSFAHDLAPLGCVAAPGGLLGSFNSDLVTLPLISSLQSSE
Chain of human IL-10 receptor (IL-10R) on T cells and B cells of human whole blood (human) (Q08334 20-325, chain 2 of 2, further chain): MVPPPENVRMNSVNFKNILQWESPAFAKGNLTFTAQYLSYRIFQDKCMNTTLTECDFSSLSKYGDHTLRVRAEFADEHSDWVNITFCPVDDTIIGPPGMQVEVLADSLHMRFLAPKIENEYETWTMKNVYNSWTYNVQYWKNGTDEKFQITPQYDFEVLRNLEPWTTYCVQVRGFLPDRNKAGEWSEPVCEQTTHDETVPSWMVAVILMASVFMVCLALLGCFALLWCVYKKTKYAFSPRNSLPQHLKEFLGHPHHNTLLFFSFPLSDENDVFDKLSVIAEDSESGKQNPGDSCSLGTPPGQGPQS

Row | STAT3 phosphorylation (pY705), flow cytometry, CD3+ T cells in human whole blood, EC50 [1] [pM] | STAT3 phosphorylation (pY705), flow cytometry, CD19+ B cells in human whole blood, EC50 [1] [pM] | STAT3 phosphorylation (pY705), flow cytometry, B cells of C57BL/6 mouse splenocytes (CD19 + B cells), EC50 [2] [pM] | STAT3 phosphorylation (pY705), flow cytometry, CD3+ T cells of C57BL/6 mouse splenocytes, EC50 [2] [pM] | Substance
1 | 167 | 347 |  |  | 5KPEG-hIL-10 (human IL-10 conjugated to 5 KD PEG) (from UniProt P22301 19-178) (ligand)
2 |  |  | 125 | 441 | mIgG1-D265A-Fc-(G4S)4-mIL-10 (Fc fusion)
